# B1: Gal4AD-Spo11 [S. cerevisiae] / Rec104-LexA [S. cerevisiae] (parent)
# chain 1: MALEGLRKKYKTRQELVKALTPKRRSIHLNSNGHSNGTPCSNADVLAHIKHFLSLAANSLEQHQQPISIVFQNKKKKGDTSSPDIHTTLDFPLNGPHLCTHQFKLKRCAILLNLLKVVMEKLPLGKNTTVRDIFYSNVELFQRQANVVQWLDVIRFNFKLSPRKSLNIIPAQKGLVYSPFPIDIYDNILTCENEPKMQKQTIFPGKPCLIPFFQDDAVIKLGTTSMCNIVIVEKEAVFTKLVNNYHKLSTNTMLITGKGFPDFLTRLFLKKLEQYCSKLISDCSIFTDADPYGISIALNYTHSNERNAYICTMANYKGIRITQVLAQNNEVHNKSIQLLSLNQRDYSLAKNLIASLTANSWDIATSPLKNVIIECQREIFFQKKAEMNEIDARIFEYK
# chain 2: MSIEEEDTNKITCTQDFLHQYFVTERVSIQFGLNNKTVKRINKDEFDKAVNCIMSWTNYPKPGLKRTASTYLLSNSFKKSATVSLPFILGDPVCMPKRVESNNNDTCLLYSDTLYDDPLIQRNDQAGDEIEDEFSFTLLRSEVNEIRPISSSSTAQILQSDYSALMYERQASNGSIFQFSSP
# B2: Gal4AD-Spo11 [S. cerevisiae] / LexA-Rec102 [S. cerevisiae] (parent)
# chain 1: B1 chain 1
# chain 2: MARDITFLTVFLESCGAVNNDEAGKLLSAWTSTVRIEGPESTDSNSLYIPLLPPGMLKIKLNFKMNDRLVTEEQELFTKLREIVGSSIRFWEEQLFYQVQDVSTIENHVILSLKCTILTDAQISTFISKPRELHTHAKGYPEIYYLSELSTTVNFFSKEGNYVEISQVIPHFNEYFSSLIVSQLEFEYPMVFSMISRLRLKWQQSSLAPISYALTSNSVLLPIMLNMIAQDKSSTTAYQILCRRRGPPIQNFQIFSLPAVTYNK
# Variants of: B1
# Experiment: Y2H β-galactosidase assay
# Conditions: with Rec104-LexA [S. cerevisiae]; parent: 1; read off a plot
row,Variant,response (normalized β-gal units)
1,chain 1 K8A,0.72
2,chain 1 R7D,0.24
3,chain 1 R7A,0.85

# Same assay, conditions: with Gal4AD-Spo11 [S. cerevisiae]; parent: 1; read off a plot
row,Variant,response (normalized β-gal units)
1,chain 2 D16A,1.1
2,chain 2 D16R,0.53
3,chain 2 Q20A,0.75
4,chain 2 F22A,0.93
5,chain 2 Y21A,0.02

# Variants of: B2
# Experiment: Y2H quantitative β-galactosidase assay
# Conditions: with LexA-Rec102 [S. cerevisiae]; parent: 1; read off a plot
row,Variant,response (normalized β-gal units)
1,chain 1 L20A,0.35
2,chain 1 F91A,0.3
3,chain 1 F103A,0.35
4,chain 1 L93A,0.15
5,chain 1 L60A,0.62
6,chain 1 L3A,0.27
7,chain 1 L105A,0.05
8,chain 1 Q102A,1.2
9,chain 1 V17A,0.5
10,chain 1 G95A,0.17
11,chain 1 L112A,0.03
12,chain 1 L16A,0.3
13,chain 1 N94A,0.07

# Same assay, conditions: with Gal4AD-Spo11 [S. cerevisiae]; parent: 1; read off a plot
row,Variant,response (normalized β-gal units)
1,chain 2 R199A,0.02
2,chain 2 L207A,2
3,chain 2 S233A,0.12
4,chain 2 W202A,0.1
5,chain 2 I249A,0.9
6,chain 2 L198A,0.15
7,chain 2 Q239A,0.27
8,chain 2 I195A,0.2

# Reference: article PMC11746154
